Patent US20140087995A1 (published 2014)
Numbered stars: 1 amine (or outer) side, 2 acyl side, 3 side chain; on linkers, the order of the positions; unused ones are H or OH. Bridge positions count the residues as written; N and C are the ends. Side chains are listed from the residue outwards. Ends that are not written are not given here. * marks the point of attachment. C20 diacid = O=C(O)CCCCCCCCCCCCCCCCCCC(=O)*; γGlu = O=C(O)[C@H](CCC(=O)[*:2])N[*:1]

T1: rat calcitonin receptor (rat, UniProt P32214 25-516)
T1 construct: whole, on cells; Used as membranes prepared from the transfected cells (Assay VIII); also called rCTR; rat calcitonin (a) receptor
T1 sequence (looked up): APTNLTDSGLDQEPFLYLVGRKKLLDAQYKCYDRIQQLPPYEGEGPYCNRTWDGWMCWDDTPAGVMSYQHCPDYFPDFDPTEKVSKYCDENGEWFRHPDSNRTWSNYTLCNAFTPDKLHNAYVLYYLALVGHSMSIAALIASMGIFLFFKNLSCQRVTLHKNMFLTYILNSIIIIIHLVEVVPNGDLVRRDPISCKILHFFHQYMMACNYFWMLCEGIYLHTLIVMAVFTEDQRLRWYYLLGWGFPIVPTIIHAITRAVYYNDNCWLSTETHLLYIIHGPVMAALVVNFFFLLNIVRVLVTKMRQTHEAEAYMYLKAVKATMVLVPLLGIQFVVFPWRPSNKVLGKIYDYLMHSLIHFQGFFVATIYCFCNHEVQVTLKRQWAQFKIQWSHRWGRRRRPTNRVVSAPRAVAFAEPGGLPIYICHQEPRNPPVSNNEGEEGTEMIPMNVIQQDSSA

T2: human calcitonin receptor (human, UniProt P30988 25-474)
T2 construct: whole, on cells; Used as membranes prepared from the transfected cells (Assay VII); also called hCTR; hCT
T2 sequence (looked up): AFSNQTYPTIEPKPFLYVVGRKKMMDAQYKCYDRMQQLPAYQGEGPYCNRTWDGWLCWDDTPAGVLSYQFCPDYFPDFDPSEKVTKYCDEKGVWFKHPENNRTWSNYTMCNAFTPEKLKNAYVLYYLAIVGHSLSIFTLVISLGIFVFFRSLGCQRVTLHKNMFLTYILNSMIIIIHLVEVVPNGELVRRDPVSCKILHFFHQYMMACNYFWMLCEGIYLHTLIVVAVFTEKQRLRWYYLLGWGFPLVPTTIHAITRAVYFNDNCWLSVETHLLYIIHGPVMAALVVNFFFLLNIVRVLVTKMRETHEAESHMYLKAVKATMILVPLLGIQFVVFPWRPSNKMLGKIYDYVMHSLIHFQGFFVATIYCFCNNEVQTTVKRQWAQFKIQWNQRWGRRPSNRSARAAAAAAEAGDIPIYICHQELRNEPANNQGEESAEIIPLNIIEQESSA

T3: rat amylin receptor (rat calcitonin receptor + rat RAMP 3) (rat, UniProt P32214 25-516; Q9JJ73 23-147)
T3 construct: whole, on cells; Used as membranes prepared from the transfected cells (Assay VI); also called rAmylin-R; rat amylin 3(a) receptor
T3 sequence (looked up) 1: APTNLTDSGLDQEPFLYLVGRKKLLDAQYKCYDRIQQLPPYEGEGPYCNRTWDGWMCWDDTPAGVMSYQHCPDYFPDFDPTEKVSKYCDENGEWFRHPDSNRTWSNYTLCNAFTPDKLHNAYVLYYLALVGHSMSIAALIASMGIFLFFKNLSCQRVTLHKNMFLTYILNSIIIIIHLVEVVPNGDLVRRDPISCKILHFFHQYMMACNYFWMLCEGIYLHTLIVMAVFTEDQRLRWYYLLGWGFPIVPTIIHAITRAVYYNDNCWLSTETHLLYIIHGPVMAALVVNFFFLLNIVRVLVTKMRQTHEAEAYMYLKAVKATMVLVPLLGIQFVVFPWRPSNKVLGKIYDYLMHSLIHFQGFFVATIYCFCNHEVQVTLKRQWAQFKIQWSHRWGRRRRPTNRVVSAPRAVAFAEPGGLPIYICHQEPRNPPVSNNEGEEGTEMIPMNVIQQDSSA
T3 sequence (looked up) 2: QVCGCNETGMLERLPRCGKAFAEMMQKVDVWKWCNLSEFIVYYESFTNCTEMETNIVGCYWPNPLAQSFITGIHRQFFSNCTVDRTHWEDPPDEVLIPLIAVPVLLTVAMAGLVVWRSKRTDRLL


Assays:
rat calcitonin receptor [1] = biological target: T1, rat calcitonin receptor; assay: ratio of IC50 on rat calcitonin receptor (Assay VIII) to IC50 on rat amylin receptor (Assay VI)
rat calcitonin receptor [2] = biological target: T1, rat calcitonin receptor; assay: SPA competition binding, displacement of 125I-calcitonin from membranes of BHK tk'ts 13 cells transfected with rat calcitonin receptor (Assay VIII)
[3] = biological target: T2, human calcitonin receptor; assay: ratio of IC50 on human calcitonin receptor (Assay VII) to IC50 on human amylin receptor (Assay V)
Procedure, shortened: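 Membranes (35 ng/μL final) + SPA beads, 50 mM Hepes pH 7.4 buffer with 1 mM CaCl2, 5 mM MgCl₂, 0.1% OA, 0.02% Tween20; 120 min, 25° C, shaking; centrifuged, counted; IC₅₀ by one-site binding competition.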

[4] = biological target: T3, rat amylin receptor (rat calcitonin …); assay: SPA competition binding, displacement of 125I-rat amylin from membranes of BHK tk'ts 13 cells transfected with rat calcitonin receptor + rat RAMP 3 (Assay VI)

Ratio rCT/rAmylin binding (rat calcitonin receptor [1]) | IC50 (rat calcitonin receptor [2]) [nM] | Ratio hCT/hAmylin binding [3] | IC50 [4] [nM] | Binder
72.4 | 9.05 | 24.8 | 0.125 | K([γGlu-C20 diacid])CNTATCATQRLAHFLRHSSPNFGAIPSSTPVGPNTY-NH2 (disulfide 2-7; N-terminus assumed; SMILES CC[C@H](C)[C@H](NC(=O)[C@H](C)NC(=O)CNC(=O)[C@H](Cc1ccccc1)NC(=O)[C@H](CC(N)=O)NC(=O)[C@@H]1CCCN1C(=O)[C@H](CO)NC(=O)[C@H](CO)NC(=O)[C@H](Cc1c[nH]cn1)NC(=O)[C@H](CCCNC(=N)N)NC(=O)[C@H](CC(C)C)NC(=O)[C@H](Cc1ccccc1)NC(=O)[C@H](Cc1c[nH]cn1)NC(=O)[C@H](C)NC(=O)[C@H](CC(C)C)NC(=O)[C@H](CCCNC(=N)N)NC(=O)[C@H](CCC(N)=O)NC(=O)[C@@H](NC(=O)[C@H](C)NC(=O)[C@@H]1CSSC[C@H](NC(=O)[C@@H](N)CCCCNC(=O)CC[C@H](NC(=O)CCCCCCCCCCCCCCCCCCC(=O)O)C(=O)O)C(=O)N[C@@H](CC(N)=O)C(=O)N[C@@H]([C@@H](C)O)C(=O)N[C@@H](C)C(=O)N[C@@H]([C@@H](C)O)C(=O)N1)[C@@H](C)O)C(=O)N1CCC[C@H]1C(=O)N[C@@H](CO)C(=O)N[C@@H](CO)C(=O)N[C@H](C(=O)N1CCC[C@H]1C(=O)N[C@H](C(=O)NCC(=O)N1CCC[C@H]1C(=O)N[C@@H](CC(N)=O)C(=O)N[C@H](C(=O)N[C@@H](Cc1ccc(O)cc1)C(N)=O)[C@@H](C)O)C(C)C)[C@@H](C)O, not restated for each compound)
74.7 | 33.5 | 22.6 | 0.449 | K([γGlu-γGlu-C20 diacid])CNTATCATQRLAEFLRHSSPNFGAILSSTPVGPETY-NH2 (disulfide 2-7 (inferred), not restated for each compound)
240 | 223 | 280 | 0.93 | K([γGlu-γGlu-C20 diacid])CNTATCATQRLADFLRHSSPNFGAIPSSTNVGPRTY-NH2 (disulfide 2-7, not restated for each compound; also called compound 130)
159 | 498 | 29.1 | 3.14 | K([γGlu-γGlu-C20 diacid])CNTATCATQRLAEFLRHSSPNFGAIPSSTNVGHETY-NH2 (disulfide 2-7; N-terminus assumed; SMILES CC[C@H](C)[C@H](NC(=O)[C@H](C)NC(=O)CNC(=O)[C@H](Cc1ccccc1)NC(=O)[C@H](CC(N)=O)NC(=O)[C@@H]1CCCN1C(=O)[C@H](CO)NC(=O)[C@H](CO)NC(=O)[C@H](Cc1c[nH]cn1)NC(=O)[C@H](CCCNC(=N)N)NC(=O)[C@H](CC(C)C)NC(=O)[C@H](Cc1ccccc1)NC(=O)[C@H](CCC(=O)O)NC(=O)[C@H](C)NC(=O)[C@H](CC(C)C)NC(=O)[C@H](CCCNC(=N)N)NC(=O)[C@H](CCC(N)=O)NC(=O)[C@@H](NC(=O)[C@H](C)NC(=O)[C@@H]1CSSC[C@H](NC(=O)[C@@H](N)CCCCNC(=O)CC[C@H](NC(=O)CC[C@H](NC(=O)CCCCCCCCCCCCCCCCCCC(=O)O)C(=O)O)C(=O)O)C(=O)N[C@@H](CC(N)=O)C(=O)N[C@@H]([C@@H](C)O)C(=O)N[C@@H](C)C(=O)N[C@@H]([C@@H](C)O)C(=O)N1)[C@@H](C)O)C(=O)N1CCC[C@H]1C(=O)N[C@@H](CO)C(=O)N[C@@H](CO)C(=O)N[C@H](C(=O)N[C@@H](CC(N)=O)C(=O)N[C@H](C(=O)NCC(=O)N[C@@H](Cc1c[nH]cn1)C(=O)N[C@@H](CCC(=O)O)C(=O)N[C@H](C(=O)N[C@@H](Cc1ccc(O)cc1)C(N)=O)[C@@H](C)O)C(C)C)[C@@H](C)O, not restated for each compound)
868 | 140 | 45.3 | 0.161 | K([γGlu-γGlu-C20 diacid])CNTATCATQRLASFLRHSSPNFGAIPSSTNVGPETY-NH2 (disulfide 2-7; N-terminus assumed; SMILES CC[C@H](C)[C@H](NC(=O)[C@H](C)NC(=O)CNC(=O)[C@H](Cc1ccccc1)NC(=O)[C@H](CC(N)=O)NC(=O)[C@@H]1CCCN1C(=O)[C@H](CO)NC(=O)[C@H](CO)NC(=O)[C@H](Cc1c[nH]cn1)NC(=O)[C@H](CCCNC(=N)N)NC(=O)[C@H](CC(C)C)NC(=O)[C@H](Cc1ccccc1)NC(=O)[C@H](CO)NC(=O)[C@H](C)NC(=O)[C@H](CC(C)C)NC(=O)[C@H](CCCNC(=N)N)NC(=O)[C@H](CCC(N)=O)NC(=O)[C@@H](NC(=O)[C@H](C)NC(=O)[C@@H]1CSSC[C@H](NC(=O)[C@@H](N)CCCCNC(=O)CC[C@H](NC(=O)CC[C@H](NC(=O)CCCCCCCCCCCCCCCCCCC(=O)O)C(=O)O)C(=O)O)C(=O)N[C@@H](CC(N)=O)C(=O)N[C@@H]([C@@H](C)O)C(=O)N[C@@H](C)C(=O)N[C@@H]([C@@H](C)O)C(=O)N1)[C@@H](C)O)C(=O)N1CCC[C@H]1C(=O)N[C@@H](CO)C(=O)N[C@@H](CO)C(=O)N[C@H](C(=O)N[C@@H](CC(N)=O)C(=O)N[C@H](C(=O)NCC(=O)N1CCC[C@H]1C(=O)N[C@@H](CCC(=O)O)C(=O)N[C@H](C(=O)N[C@@H](Cc1ccc(O)cc1)C(N)=O)[C@@H](C)O)C(C)C)[C@@H](C)O, not restated for each compound; also called compound 120)
73 | 21 | 27.3 | 0.288 | K([γGlu-γGlu-C20 diacid])CNTATCATQRLAEFLRHSSPNFGAIPSSTNVGPHTY-NH2 (disulfide 2-7 (inferred), not restated for each compound)
98.5 | 31.9 | 49.8 | 0.324 | K([γGlu-γGlu-C20 diacid])CNTATCATQRLADFLRHSSPNFGAIPSSTNVGPETY-NH2 (disulfide 2-7, not restated for each compound)
137 | 52.4 | 48.6 | 0.381 | K([γGlu-γGlu-C20 diacid])CNTATCATQRLANFLRHSSPNFGAIPSSTPVGPRTY-NH2 (disulfide 2-7; N-terminus assumed; SMILES CC[C@H](C)[C@H](NC(=O)[C@H](C)NC(=O)CNC(=O)[C@H](Cc1ccccc1)NC(=O)[C@H](CC(N)=O)NC(=O)[C@@H]1CCCN1C(=O)[C@H](CO)NC(=O)[C@H](CO)NC(=O)[C@H](Cc1c[nH]cn1)NC(=O)[C@H](CCCNC(=N)N)NC(=O)[C@H](CC(C)C)NC(=O)[C@H](Cc1ccccc1)NC(=O)[C@H](CC(N)=O)NC(=O)[C@H](C)NC(=O)[C@H](CC(C)C)NC(=O)[C@H](CCCNC(=N)N)NC(=O)[C@H](CCC(N)=O)NC(=O)[C@@H](NC(=O)[C@H](C)NC(=O)[C@@H]1CSSC[C@H](NC(=O)[C@@H](N)CCCCNC(=O)CC[C@H](NC(=O)CC[C@H](NC(=O)CCCCCCCCCCCCCCCCCCC(=O)O)C(=O)O)C(=O)O)C(=O)N[C@@H](CC(N)=O)C(=O)N[C@@H]([C@@H](C)O)C(=O)N[C@@H](C)C(=O)N[C@@H]([C@@H](C)O)C(=O)N1)[C@@H](C)O)C(=O)N1CCC[C@H]1C(=O)N[C@@H](CO)C(=O)N[C@@H](CO)C(=O)N[C@H](C(=O)N1CCC[C@H]1C(=O)N[C@H](C(=O)NCC(=O)N1CCC[C@H]1C(=O)N[C@@H](CCCNC(=N)N)C(=O)N[C@H](C(=O)N[C@@H](Cc1ccc(O)cc1)C(N)=O)[C@@H](C)O)C(C)C)[C@@H](C)O, not restated for each compound)
